From patent publication US20200024338A1 (Stanford University, published 2020)
Blank lines part the entries; values can stand above or below the binder they belong to.

What was measured:
[1] = target: T1, Human ZNRF3 ECD (amino acids 56-219) (human, UniProt Q9ULT6 56-219, site-specifically biotinylated by BirA ligase at the C-terminal biotin-acceptor peptide); test: yeast surface display titration: scFv-displaying yeast with increasing ZNRF3, flow cytometry, normalized MFI
T1 construct: range 56-219; The methods say that ZNRF3 means the ECD only; also called ZNR3 ECD; biotinylated ZNRF3
T1 sequence: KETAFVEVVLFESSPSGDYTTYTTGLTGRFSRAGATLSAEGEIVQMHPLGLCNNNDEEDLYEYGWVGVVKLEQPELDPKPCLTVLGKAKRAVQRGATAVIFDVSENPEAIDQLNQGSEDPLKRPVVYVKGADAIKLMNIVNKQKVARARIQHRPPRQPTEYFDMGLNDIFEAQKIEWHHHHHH
Experimental: (§1) Plasmids from the final round of selection were isolated using the Zymoprep Yeast Plasmid Miniprep Kit (Zymo Research) and sequenced. These plasmids were electroporated into S. cerevisiae EBY100 yeast and recovered in SDCAA selection media, followed by induction in SGCAA induction media. The individual scFv-transformed yeast were incubated with increasing concentration of biotinylated RNF43/ZNRF3. These yeast were stained with SA-647 and Myc-488 and fluorescence was monitored by flow cytometry. The data were analyzed by GraphPad Prism 7 and the highest affinity clones were identified for subsequent experiments.

[2] = target: T2, Human RNF43 Extracellular Domain (ECD) (amino acids 24-197) (human, UniProt Q68DV7 24-197, site-specifically biotinylated by BirA ligase at the C-terminal biotin-acceptor peptide); test: yeast surface display titration: scFv-displaying yeast with increasing RNF43, flow cytometry, normalized MFI
T2 construct: range 24-197; The methods say that RNF43 means the ECD only; also called RNF43 ECD; biotinylated RNF43
T2 sequence: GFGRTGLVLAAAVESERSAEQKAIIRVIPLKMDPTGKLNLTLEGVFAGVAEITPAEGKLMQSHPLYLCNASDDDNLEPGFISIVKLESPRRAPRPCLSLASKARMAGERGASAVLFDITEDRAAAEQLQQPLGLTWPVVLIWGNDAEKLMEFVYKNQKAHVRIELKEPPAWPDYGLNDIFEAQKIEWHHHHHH
Experimental: as §1

EC50 [1]: 113 nM
B1: Z6 scFv (scFv)
scFv: ASQVQLVQSGAEVKNPGASVKVSCKASGYAFTSYGISWVRQAPGQGLEWMGWISAYTRNTNYAQKFQGRVTLTTDTSTSTAYMELRSLRSDDTAIYYCARDARYSLGVGAFDVWGQGTMVTVSSGILGSGGGGSGGGGSGGGGSETTLTQSPAFMSATPGDKVSISCKASRDIDDDLNWYQQKPGEAAISIIQEATTLVPGIPPRFSGSGYGTDFTLTINNIESEDAAYYFCLQHDDVPYTFGQGTKLEIKSGIL

EC50 [2]: 122 nM
B2: R5 scFv (scFv)
scFv: ASQITLKESGPTLVKPTQTLTLTCSFSGFSLSFSGVGVAWIRQPPGKALEWLALIYWDDDKRYSPSLKSRLTITKDTSKNQVVLTMTNMDPLDTATYYCAHREWKAFGAFDIWGQGTMVTVSSGILGSGGGGSGGGGSGGGGSQPVLTQSPSASGTPGQRVTISCSGSSSNIGSNTVNWYQQLPGTAPKLLIYSNNQRPSGVPDRFSGSKSVTSASLAISGLQSEDEAEYYCATWDDSLNGAVFGGGTQLTVLSGILG
